Measurements: the supplement of paper PMC12764529
± gives the half width of the 95% confidence interval.

Columns and labels:
[1] = folding stability dG unfold (combined trypsin and chymotrypsin); higher = more stable
Summary of the method: (§1)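 Unfolding free energy was derived, per protease or combined, against a sequence-predicted unfolded-state K50 and a shared folded-state K50, starting from K50 inferred by Bayesian fitting of sequencing counts. Digestion with trypsin and chymotrypsin was carried out on designed mini-proteins under 80 residues without cysteine in a PA-tagged cDNA display construct. Only designs with AlphaFold2 dimer inter-PAE above 15 were kept.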

[2] = folding stability dG unfold from trypsin proteolysis; higher = more stable
Summary of the method: as §1

[3] = folding stability dG unfold from chymotrypsin proteolysis; higher = more stable
Summary of the method: as §1

SAGGSAGGSAMVTIAFPDGTVVEIPASLSEEEVEAEAERLAKERAAGVRPVDVTVESIEPPGSAGGSAGGSA [r18_213_JUSTAS]
folding stability dG unfold [1]: 1.07 ± 0.069 kcal/mol
folding stability dG unfold [2]: 0.356 ± 0.035 kcal/mol
folding stability dG unfold [3]: 1.43 ± 0.062 kcal/mol

SAGGSAGGSAMVVEVPVEFPDDVKVYSVEEDPELGVLLVKVKFPDREVLAVIPGDKLFIADASAGGSAGGSA [r18_212_TrMRF]
folding stability dG unfold [1]: 0.422 ± 0.052 kcal/mol
folding stability dG unfold [2]: 0.43 ± 0.016 kcal/mol
folding stability dG unfold [3]: 0.325 ± 0.089 kcal/mol

SAGGSAGGSAMVVPRTYRVPPGLTVEEVADYLRAKDPNVIDATAERRPDGYLLVTVLVRLDSAGGSAGGSAG [r3_371_TrMRF]
folding stability dG unfold [1]: 1.69 ± 0.17 kcal/mol
folding stability dG unfold [2]: 1.21 ± 0.068 kcal/mol
folding stability dG unfold [3]: 2.07 ± 0.079 kcal/mol

SAGGSAGGSAMWVIRIWFPNGNKRTIPIPPNEKLTAEEILDEFRIPNGREMRILRVEIWPYSAGGSAGGSAG [r3_465_TrROS]
folding stability dG unfold [1]: 2.43 ± 0.042 kcal/mol
folding stability dG unfold [2]: 1.967 ± 0.011 kcal/mol
folding stability dG unfold [3]: 2.66 ± 0.034 kcal/mol

SAGGSAGGSAMYKVTIEIPETGKIYTFTHPGTAEEALAAALPEIGVSKEKIKKITVTPTEESAGGSAGGSAG [r3_79_JUSTAS]
folding stability dG unfold [1]: 0.994 ± 0.11 kcal/mol
folding stability dG unfold [2]: 0.312 ± 0.079 kcal/mol
folding stability dG unfold [3]: 1.36 ± 0.11 kcal/mol

SAGGSAGGSANVKLKIDLDPGYGYIKIKLEWEDPGTGNKQEMEITIPIPIPPPPPPPANDKKSAGGSAGGSA [r18_361_TrROS]
folding stability dG unfold [1]: 1.93 ± 0.43 kcal/mol
folding stability dG unfold [2]: 1.12 ± 0.11 kcal/mol
folding stability dG unfold [3]: 2.17 ± 0.11 kcal/mol

SAGGSAGGSANWKEIDGTLPWGLRVKVWVSPGNGQLMIEIKPVPPPPPPKISPEDADKANADSAGGSAGGSA [r18_236_TrROS]
folding stability dG unfold [1]: 3.39 ± 0.3 kcal/mol
folding stability dG unfold [2]: 2.31 ± 0.072 kcal/mol
folding stability dG unfold [3]: 4.06 ± 0.13 kcal/mol

SAGGSAGGSANWYIRIHSPNGQPIWFPMKIKNVTPKGGEIEFKMRNPNGREMPFRVEIFPLESAGGSAGGSA [r18_163_TrROS]
folding stability dG unfold [1]: 0.981 ± 0.13 kcal/mol
folding stability dG unfold [2]: 0.752 ± 0.13 kcal/mol
folding stability dG unfold [3]: 1.16 ± 0.22 kcal/mol

SAGGSAGGSAPDVEVEPFTLPSGEEAVAFRLPDGSRVVLVGDKAVLFYKDGKVEEVPLEEILSAGGSAGGSA [r18_379_TrMRF]
folding stability dG unfold [1]: 1.76 ± 0.13 kcal/mol
folding stability dG unfold [2]: 1.46 ± 0.042 kcal/mol
folding stability dG unfold [3]: 1.78 ± 0.1 kcal/mol

SAGGSAGGSAPLPPLTPEQVKALVEELKKKGYKVKKVTVVEVNGELYVFVEVDGKLYRIKVSAGGSAGGSAG [r3_395_TrROS_Hall]
folding stability dG unfold [1]: 4.23 ± 0.064 kcal/mol
folding stability dG unfold [2]: 3.47 ± 0.069 kcal/mol
folding stability dG unfold [3]: 4.47 ± 0.12 kcal/mol

SAGGSAGGSAPLSLVIDFPSGPATITFLEDGTARITYTDDDKTETIPVADLLKIPADVDPRSAGGSAGGSAG [r3_256_TrMRF]
folding stability dG unfold [1]: 0.507 ± 0.091 kcal/mol
folding stability dG unfold [2]: 0.0215 ± 0.099 kcal/mol
folding stability dG unfold [3]: 0.769 ± 0.12 kcal/mol

SAGGSAGGSAPMEIWVLIDSPEKAKDLAKEIAHELQQSGIKIKVEVEQPPNGYYLVKIRFDSAGGSAGGSAG [r3_211_TrROS]
folding stability dG unfold [1]: 1.91 ± 0.22 kcal/mol
folding stability dG unfold [2]: 1.89 ± 0.14 kcal/mol
folding stability dG unfold [3]: 1.81 ± 0.11 kcal/mol

SAGGSAGGSAPPDEGQKWVPVTFPIEFPLPDGNKVKIPIDFWYPKEDGKPIAMQIEWWAKNSAGGSAGGSAG [r3_484_TrROS]
folding stability dG unfold [1]: 0.72 ± 0.26 kcal/mol
folding stability dG unfold [2]: 0.373 ± 0.13 kcal/mol
folding stability dG unfold [3]: 1.42 ± 0.22 kcal/mol

SAGGSAGGSAPPNLKIEIDLQRHPEDDHIFLEMEATYPDDGKELKVMIMINPDDGKIGIMIMSAGGSAGGSA [r18_383_TrROS]
folding stability dG unfold [1]: 3.34 ± 0.29 kcal/mol
folding stability dG unfold [2]: 2.76 ± 0.22 kcal/mol
folding stability dG unfold [3]: 3.7 ± 0.29 kcal/mol

SAGGSAGGSAPPRRVTIEYDPDSGMFKVKVPGGKEREIEGMPPNQIEEQAKDYGIDRVEIVSAGGSAGGSAG [r3_78_TrROS]
folding stability dG unfold [1]: -0.0794 ± 0.18 kcal/mol
folding stability dG unfold [2]: 0.205 ± 0.16 kcal/mol
folding stability dG unfold [3]: -0.286 ± 0.41 kcal/mol

SAGGSAGGSAPPWTRVLGLGTFPPGVPDLPVEVPGGNVYALFTPTEDGSVQVLIVDLIPPLSAGGSAGGSAG [r3_464_TrMRF]
folding stability dG unfold [1]: 0.773 ± 0.17 kcal/mol
folding stability dG unfold [2]: 0.472 ± 0.1 kcal/mol
folding stability dG unfold [3]: 0.965 ± 0.21 kcal/mol

SAGGSAGGSAPVLVLETESGVKFETLSLGPGPGALALIVTPDKPALALINLDDPNNIKILASAGGSAGGSAG [r3_450_TrMRF]
folding stability dG unfold [1]: 1.18 ± 0.1 kcal/mol
folding stability dG unfold [2]: 1.55 ± 0.045 kcal/mol
folding stability dG unfold [3]: 0.799 ± 0.11 kcal/mol

SAGGSAGGSAQPIPIKIRIRMRDDGKPQTFTFEVPVKPGATESTILDKIMKKFPGFRHIEIESAGGSAGGSA [r18_195_TrROS]
folding stability dG unfold [1]: 1.06 ± 0.085 kcal/mol
folding stability dG unfold [2]: 1.06 ± 0.035 kcal/mol
folding stability dG unfold [3]: 0.961 ± 0.066 kcal/mol

SAGGSAGGSARTLTLTFLTDSPEVAERFVRELREQKPLRVEASYRRLPDGRYLVTVTIHLDSAGGSAGGSAG [r3_273_TrMRF]
folding stability dG unfold [1]: 4.64 ± 0.074 kcal/mol
folding stability dG unfold [2]: 3.21 ± 0.084 kcal/mol
folding stability dG unfold [3]: 5.14 ± 0.14 kcal/mol

SAGGSAGGSASIEVAAPPDATVTITTEITRKLPAGAKLPNGVVASADETLKETVTTTITVLGSAGGSAGGSA [r18_450_JUSTAS]
folding stability dG unfold [1]: 0.364 ± 0.34 kcal/mol
folding stability dG unfold [2]: -0.27 ± 0.29 kcal/mol
folding stability dG unfold [3]: 0.817 ± 0.047 kcal/mol

SAGGSAGGSASITYENGYATITLKVPEGTVRIVDLATNEVIEIKPGDTVTIRVKIPPPPPESAGGSAGGSAG [r3_185_TrROS_Hall]
folding stability dG unfold [1]: 1.73 ± 0.18 kcal/mol
folding stability dG unfold [2]: 2.31 ± 0.095 kcal/mol
folding stability dG unfold [3]: 1.55 ± 0.059 kcal/mol
